Experiments:
[1] = biological target: CheAΔ289 (290–671) (T. maritima) (UniProt Q56310); test: pulsed dipolar ESR spectroscopy
[2] = biological target: CheA (Thermotoga maritima) (UniProt Q56310); settings: cited from earlier work
[3] = biological target: CheA:CheW complex (CheAΔ289 dimer with one CheW bound to each subunit) (T. maritima) (UniProt Q56310); test: pulsed dipolar ESR spectroscopy

CheA (Thermotoga maritima), sequence (Q56310 whole entry): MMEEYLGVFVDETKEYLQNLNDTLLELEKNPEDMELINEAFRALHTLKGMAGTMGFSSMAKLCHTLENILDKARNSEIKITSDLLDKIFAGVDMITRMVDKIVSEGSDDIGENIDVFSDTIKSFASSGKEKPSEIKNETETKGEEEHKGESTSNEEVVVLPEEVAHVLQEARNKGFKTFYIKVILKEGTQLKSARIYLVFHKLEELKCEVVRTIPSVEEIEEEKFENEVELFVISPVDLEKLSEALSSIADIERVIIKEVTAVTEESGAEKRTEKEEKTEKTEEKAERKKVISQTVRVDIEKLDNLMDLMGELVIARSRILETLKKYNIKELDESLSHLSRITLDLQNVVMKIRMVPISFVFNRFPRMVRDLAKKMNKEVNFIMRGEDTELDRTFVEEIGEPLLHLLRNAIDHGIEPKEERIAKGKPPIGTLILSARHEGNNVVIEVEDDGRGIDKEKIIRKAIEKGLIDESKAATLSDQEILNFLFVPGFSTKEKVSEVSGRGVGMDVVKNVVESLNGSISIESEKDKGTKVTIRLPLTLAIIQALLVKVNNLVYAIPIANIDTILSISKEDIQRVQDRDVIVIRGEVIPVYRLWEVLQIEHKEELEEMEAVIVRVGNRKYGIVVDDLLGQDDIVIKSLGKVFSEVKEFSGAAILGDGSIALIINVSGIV
CheW, sequence (Q56311 whole entry): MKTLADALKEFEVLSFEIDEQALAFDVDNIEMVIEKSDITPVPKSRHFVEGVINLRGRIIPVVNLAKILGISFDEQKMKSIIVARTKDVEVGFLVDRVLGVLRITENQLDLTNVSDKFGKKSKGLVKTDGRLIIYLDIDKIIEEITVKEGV

Substance: CheAΔ289 (290–671) (from UniProt Q56310 290-671) (domain or fragment)
- stoichiometry N [1]: 4

Substance: CheW (from UniProt Q56311)
- Kd [2]: 100 nM

Substance: Tm14C (Tm14: residues 40–213) (domain or fragment)
- stoichiometry N (Tm14 dimer per CheA:CheW dimer) [3]: 1

From article PMC2873776
